Results from paper PMC4124618.

Test system: Cc1[nH]c2ccccc2c1CCN
Experiment: steady-state kinetics of halogenation
Type: biochemical, Lentzea aerocolonigenes
Settings: 21 °C

Substance | Km | kcat | kcat/Km | Km (variant 3-LSR) | kcat (variant 3-LSR) | kcat/Km (variant 3-LSR)
RebH (Lentzea aerocolonigenes) | 16.8 ± 3.8 µM | 0.06 ± 0.0057 s⁻¹ | 3600 M⁻¹ s⁻¹ | – | – | –
RebH (Lentzea aerocolonigenes; E423D/E461G/K145M/M71V/N166S/Q494R/S130L/S2P) | – | – | – | 40.2 ± 3.7 µM | 0.013 ± 0.00036 s⁻¹ | 330 M⁻¹ s⁻¹
